How the values were obtained:
[1] = biological target: Tumour necrosis factor-alpha (TNF-alpha) (Homo sapiens, UniProt P01375 77-233); experiment: OECT gate-voltage shift; negligible, non-monotonic shifts over the tested range; Kelvin probe in agreement; PBS (immobilization and rinse PBS pH 7.4); FO-SPR 10 min per concentration step; aptamer folded 95 C 5 min, ice 15 min, RT 5 min; assay temperature not stated; conditions: protein: recombinant; chain copies: 3; label: none
Interleukin-6 (IL-6) = Interleukin-6 (IL-6) (UniProt P05231 30-212); experiment: FO-SPR; aptamer immobilized on pALT5c film; 100 fg/mL to 1 ug/mL IL-6 in PBS; no response without aptamer; PBS (immobilization and rinse PBS pH 7.4); FO-SPR 10 min per concentration step; aptamer folded 95 C 5 min, ice 15 min, RT 5 min; assay temperature not stated; conditions: label: none
Chain of Interleukin-6 (IL-6) (P05231 30-212): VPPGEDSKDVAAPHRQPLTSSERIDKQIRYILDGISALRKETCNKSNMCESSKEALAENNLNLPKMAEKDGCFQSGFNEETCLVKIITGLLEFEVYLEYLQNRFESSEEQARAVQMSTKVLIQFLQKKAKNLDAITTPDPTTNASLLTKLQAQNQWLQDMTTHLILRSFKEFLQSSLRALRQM

Chain of Tumour necrosis factor-alpha (TNF-alpha) (P01375 77-233): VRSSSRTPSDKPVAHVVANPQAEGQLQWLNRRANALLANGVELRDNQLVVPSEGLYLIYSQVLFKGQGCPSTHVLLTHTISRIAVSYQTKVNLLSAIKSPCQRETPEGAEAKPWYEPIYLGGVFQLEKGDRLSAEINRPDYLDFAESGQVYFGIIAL

CTTCCAACGCTCGTATTGTCAGTCTTTAGT (ssDNA, 5'-AminoC6) [IL-6 specific aptamer (Apt)]
binding result [1]: no binding | binding result (Interleukin-6 (IL-6)): binds
